Paper PMC10661118

Experiments:
[1] = IRBP-SEAP reporter in HeLa, normalised to EV; conditions: glycan lost; control: WT OTX2, untreated
[2] = DSP crosslink, soluble vs pellet fractions, WB, HeLa; conditions: control: DMSO vehicle

| Substance | other: transcriptional activity [1] | other: solubility (aggregation) ([2]; glycan lost) | other: solubility (aggregation) ([2]; glycan gained) |
| --- | --- | --- | --- |
| OTX2: OSMI4 | no change | decreases | – |
| OTX2: Thiamet-G | – | – | increases |
